From patent publication US20190367620A1 (Merck KGaA, published 2019)
Numbering of substitutions follows the chain as printed.

Tests used:
Test in all cases: SPR; free energy change relative to wild-type D2
[1] = molecular target: T1, FGFR1 D2 point mutant K51A (human, UniProt P11362 22-254)
T1 chain: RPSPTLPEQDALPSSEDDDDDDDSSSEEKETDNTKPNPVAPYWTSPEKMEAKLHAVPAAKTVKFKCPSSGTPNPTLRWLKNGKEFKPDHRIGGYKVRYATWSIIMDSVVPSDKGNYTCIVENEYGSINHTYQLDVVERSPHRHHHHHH
Method: (§1) Binding affinities of anti-FGFR1 antibodies to FGFR1 were measured by Surface Plasmon Resonance (SPR) using a GE Healthcare BIAcore 4000 instrument as follows. Goat anti-human Fc antibody (Jackson ImmunoResearch Laboratories #109-005-098) was first immobilized on BIAcore carboxymethylated dextran CM5 chip using direct coupling to free amino groups following the procedure described by the manufacturer. Antibodies were then captured on the CM5 biosensor chip to achieve approximately 200 response units (RU). Binding measurements were performed using the running HBS-EP+ buffer. A 2-fold dilution series of His-tagged FGFR1 proteins were injected at a flow rate of 30 μl/min at 25° C. Association rates (kₒₙ, per mol/s) and dissociation rates (koff, per s) were calculated using a simple 1:1 Langmuir binding model (Biacore 4000 Evaluation Software). The equilibrium dissociation constant (KD, mol) was calculated as the ratio of koff/kₒₙ.
(§2) To obtain a finer, residue-level mapping of the epitope and to complement the HD exchange data, molecular modelling and manual inspection of the crystal structure of FGFR1 [(Beenken et al. 2012); PDB record 3OJV] was used to select solvent exposed residues within and around the epitope identified by HD exchange. The selected residues were mutated either to alanine (large to small) or to glycine if the selected residue was alanine. In total 35 point mutants were designed, expressed and purified in HEK cells, and tested for binding to mAb #A08 using surface plasmon resonance as described in Example 1.8. The affinity of the antibody for wild-type and each mutant was determined and used to calculate the contribution of each epitope residue to the binding energy.
(§3) Variant were compared to wild-type D2. The change in the Gibbs free energy of binding of mutant relative to the wild-type D2 construct (ΔΔGₘᵤₜ) was derived from the ratio of the wild-type and mutant KD.

[2] = molecular target: T2, FGFR1 D2 point mutant S45A (human, UniProt P11362 22-254)
T2 chain: T1 chain with S45A, A51K
Method: as §1, §2, §3

[3] = molecular target: T3, FGFR1 D2 point mutant V56A (human, UniProt P11362 22-254)
T3 chain: T1 chain with A51K, V56A
Method: as §1, §2, §3

[4] = molecular target: T4, FGFR1 D2 point mutant H89A (human, UniProt P11362 22-254)
T4 chain: T1 chain with A51K, H89A
Method: as §1, §2, §3

[5] = molecular target: T5, FGFR1 D2 point mutant E50A (human, UniProt P11362 22-254)
T5 chain: T1 chain with E50A, A51K
Method: as §1, §2, §3

[6] = molecular target: T6, FGFR1 D2 point mutant I104A (human, UniProt P11362 22-254)
T6 chain: T1 chain with A51K, I104A
Method: as §1, §2, §3

[7] = molecular target: T7, FGFR1 D2 point mutant K86A (human, UniProt P11362 22-254)
T7 chain: T1 chain with A51K, K86A
Method: as §1, §2, §3

[8] = molecular target: T8, FGFR1 D2 point mutant D88A (human, UniProt P11362 22-254)
T8 chain: T1 chain with A51K, D88A
Method: as §1, §2, §3

[9] = molecular target: T9, FGFR1 D2 point mutant A59G (human, UniProt P11362 22-254)
T9 chain: T1 chain with A51K, A59G
Method: as §1, §2, §3

[10] = molecular target: T10, FGFR1 D2 point mutant P87A (human, UniProt P11362 22-254)
T10 chain: T1 chain with A51K, P87A
Method: as §1, §2, §3

B1: mAb #A08 (antibody, V domains shown)
VH: EVQLQESGPGLVKPSGTLSLTCAVSGGSISSNNWWSWVRQPPGKGLEWIGEIYHSGSTSYNPSLKSRVTISVDKSKNQFSLKLNSVTAADTAVYYCARGTDWFDPWGQGTLVTVSS
VL: QAVLTQPPSVSVAPGQTARITCGGNNIGSESVHWYQQKPGQAPVLVVYDDSDRPSGIPERFSGSNSGNTATLTISRVEAGDEADYYCQVWDSTSDHRVFGGGTKLTVL
notes: Only variable domains are tied to the name mAb #A08 (hit); also called #A08 hit; mAb #08
ΔΔGmut [1]: 0.27 kcal/mol
ΔΔGmut [2]: 0.05 kcal/mol
ΔΔGmut [3]: 0.2 kcal/mol
ΔΔGmut [4]: -0.02 kcal/mol
ΔΔGmut [5]: 0.02 kcal/mol
ΔΔGmut [6]: 0.93 kcal/mol
ΔΔGmut [7]: -0.06 kcal/mol
ΔΔGmut [8]: -0.1 kcal/mol
ΔΔGmut [9]: 1.78 kcal/mol
ΔΔGmut [10]: 0.08 kcal/mol
